B1: 9-G24-A (antibody, V domains shown)
VH: QVQLQQSGAELVRPGASVKLSCKASGYTFTDYEMHWVKQTPVHGLEWIGVIDPETGDTAYNQKFKDKATLTADKSSSTAYMELRSLTSEDSAVYYCARRRDYGNPYWYFDVWGAGTAVTVSS
VL: EIVLTQSPALMAASPGEKVTITCSASSSISSSNLHWYQQKSGTSPKPWIYGTSNLASGVPVRFSGSGSGTSYSLTISSMEAEDAATYVCQQWSNYPYTFGSGTKLEIK
B2: 9-M12-A (antibody, V domains shown)
VH: EVQLVESGGDLVKPGGSLKLSCTASGFTFSSYGMSWVRQTPDKRLEWVTTISSGGGYTYVPDSVKGRFTISRDNAKNTLYLHMSSLKSEDTAMYFCARPLIPTMVEAFDYWGQGTSLTVSS
VL: SIVMTQTPKFLPVSAGDRVTMTCKASQSVGNNVAWYQQKPGQSPKLLIYYASNRYTGVPDRFTGSGSGADFTFTISSVQVEDLAVYFCQQHYSSPFTFGTGTKLEIK
B3: 3-P17-A (antibody, V domains shown)
VH: QVQLKQSGPGLVQPSQSLSITCTVSGFSLTSYGVHWVRQSPGKGLEWLGVIWSGGITDYNAGFISRLSISKDNSKSQVFFTMNSLQADDTAIYYCARIITTVLDQFADWGQGTLVTVSA
VL: DIVLTQSPASLAVSLGQRATISCRASQSVSTSTYSYIHWYQQKPGQPPKLLIKYASNLESGVPARFSGSGSGTDFTLNIHPVEEEDTATYYCQHSWEIPPTFGAGTKLELK
B4: 3-K11-A (antibody, V domains shown)
VH: EVQLQQSGPELVKPGASVKMSCKASGYTFTSYVMHWVKQKPGQGLEWIGYINPYNDGTEYNEKFKGKATLTSDKSSSTAYMELSSLTSEDSAVYHCAREAYRYFDVWGTGTTVTVSS
VL: DIQMTQSPASLSVSVGETVTITCRASENIYSNLAWYQQKQGKYPQLLVYGATNLADGVPSRFSGSGSGTQYFLKINSLQSEDFGSYYCQHFWGIPWTFGGGTKLEIK
B5: 4-O14-B (antibody, V domains shown)
VH: QVQLQQPGAELVKPGASVKLSCKASGYAFISHWMHWVRQRPGRGLEWIGRIDPNSSGSKDNEKFRSKATLTVDKPSSTAYMQLSSLTSEDSAVYYCARSPYYSNPYWYFDVWGAGTTVTVSS
VL: B1 VL with A25V, G42E, S77T, S78N, V88Y, N94S, Y97F

Positions count from the first letter of the chain named.

For one assay, the target named is T1, SARS-CoV-2 (WIV02 isolate) prefusion stabilized spike trimer protein (SARS-CoV-2 (WIV02 isolate), UniProt P0DTC2 14-1213).
T1 construct: also called WT; SARS-CoV-2 spike trimer
The assay is described as follows: Table A: binding pattern against variant spike proteins.
With B1, the binding result is given as “no binding”.
For the molecule B2, the binding result was “no binding”.
The same measure, in the same setting: then B3, with “no binding”.
The same measure, in the same setting: the value for B4 was “no binding”.

For another assay, the target named is T2, SARS-CoV-2 B.1.1.7 spike protein (SARS-CoV-2 B.1.1.7 (Alpha), UniProt P0DTC2 13-1213).
T2 construct: also called alpha; SARS-CoV-2 B.1.1.7 spike trimer variant
The description is as above.
B1: the binding result is “no binding”.
Same read-out and setting: the value for B2 was “no binding”; that for B3 was “no binding”.
Still for that read-out and setting: then B4, with “no binding”.

A further assay concerns the target T3, SARS-CoV-2 P.1 spike protein (SARS-CoV-2 P.1 (Gamma), UniProt P0DTC2 13-1213).
T3 construct: also called gamma; SARS-CoV-2 P.1 spike trimer variant
The description is as above.
B1: the binding result was “no binding”.
Still for that read-out and setting: then B2, with “no binding”.
Same read-out and setting: then B3, with “no binding”.
Same read-out and setting: the value for B4 was “no binding”.

For the next assay, the target named is T4, SARS-CoV-2 B.1.617.2 spike trimer variant (SARS-CoV-2 B.1.617.2 (Delta), UniProt P0DTC2 16-1213).
T4 construct: also called delta; SARS-CoV-2 Delta Spike
The description is as above.
For the molecule B1, the binding result is given as “no binding”.
On to B2, for which the binding result is “no binding”.
On the same count and under the same terms, the value for B3 was “no binding”; that for B4 was “no binding”.

The target in another assay is T5, SARS-CoV-2 B.1.1.529 spike trimer variant (SARS-CoV-2 B.1.1.529 (Omicron), UniProt P0DTC2 16-1213).
T5 construct: also called omicron; Omicron B.1.1.529
Described as above.
Turning to B1, the binding result is “no binding”.
Same read-out and setting: then B2, with “no binding”; and B3, with “no binding”.

A further assay addresses T6, SARS-CoV-2 BA.2 spike trimer variant (SARS-CoV-2 Omicron BA.2, UniProt P0DTC2 16-1213).
T6 construct: also called Omicron BA.2
The description is as above.
With B1, the binding result was “no binding”.
Same read-out and setting: the value for B2 was “no binding”; that for B3 was “no binding”.
In the case of B4, the binding result was “no binding”.

The target in a further assay is T7, SARS-CoV-2 Beta (B.1.351) variant prefusion stabilized spike trimer protein (SARS-CoV-2 Beta (B.1.351), UniProt P0DTC2 14-1213).
T7 construct: also called SARS-CoV-2 B.1.351 spike protein; β spike
Put plainly: ELISA screens of hybridomas on WT, Alpha, Beta and Gamma spike. (ELISA stands for enzyme-linked immunosorbent assay.)
Consider B5, for which the binding result is on record as “binds”.

In another assay the target is T7, SARS-CoV-2 Beta (B.1.351) variant …. The assay is described as follows: Table A (reprint): binding pattern against variant spike proteins.
As to B3, the binding result is listed as “binds”.

The values are drawn from patent US20230115257A1 (CURIA IP, published 2023).
